Columns and labels:
[1] = target: CDK2 (UniProt P24941); assay: anti-HA co-IP, anti-FLAG blot; details: reference: wild type p21; sites T55
[2] = target: CDK4 (UniProt P11802); assay: anti-HA co-IP, anti-FLAG blot; details: reference: wild type p21; sites T55

binding against the reference [1]: weaker
binding against the reference [2]: weaker
Substance: p21 (from UniProt P38936) T55A p21

— PMC6522503
